± gives the standard deviation.
Assay: protein stability index of a GFP-peptide fusion (GPS, HEK-293T) (PSI 1-6); higher = more stable
[1] = treatment: DMSO, c terminus: a fixed tail appended
[2] = treatment: MLN4924 1 uM, 8 h, c terminus: a fixed tail appended
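Further: 24-mer peptide tiles fused after GFP, lentivirally expressed, FACS-sorted into six equal bins by GFP/DsRed ratio, decoded by Illumina sequencing, PSI is the read-weighted mean bin number.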

| Sequence | protein stability index [1] | protein stability index [2] | protein stability index (treatment: DMSO, c terminus: native) | protein stability index (treatment: MLN4924 1 uM, 8 h, c terminus: native) |
| --- | --- | --- | --- | --- |
| NLRVLVDCILRDTSEDLRLQCDAV [TEKT4] | 2.64 ± 0.57 | 2.46 ± 0.29 |  |  |
| NMPKDHPVSCCLGLLLESLVPFIV [DYNC2LI1] | 2.53 ± 0.23 | 2.57 ± 0.5 |  |  |
| NNCAFLESSAKSKINVNEIFYDLV [RAP1B] | 2.44 ± 0.45 | 2.07 ± 0.34 |  |  |
| NRDSYFYAAIVAVVAVHVVLALFV [VMA21] | 2.3 ± 0.16 | 2 ± 0.2 |  |  |
| NRFEVTLEKSNKNFSKKIQQIHVV [VPS39] | 2.36 ± 0.4 | 2.42 ± 0.22 |  |  |
| NRRRFRVRQPILQYRWDMMHRLGE [BEX1] | 2.31 ± 0.15 | 2.17 ± 0.29 |  |  |
| NRVWSISQEPDPVQRLQAYTATEQ [TRIM14] | 4.09 ± 0.31 | 3.97 ± 0.31 |  |  |
| NSQALLLHSSILTCTLLLLYSLAP [MFSD9] | 3.23 ± 0.12 | 3.08 ± 0.52 |  |  |
| NTHAKSILNSMNSLRKSNTLCDVT [KLHL12] | 2.82 ± 0.4 | 3.27 ± 0.43 |  |  |
| NTTVIPNGSMAMGTVPGQAPRLAV [LYSMD4] | 3.69 ± 0.32 | 3.5 ± 0.23 |  |  |
| NVISELNIEDYFSHHLAVYNSPQF [FBXO39] | 2.31 ± 0.29 | 2.32 ± 0.34 |  |  |
| NVPNPRIKLIDFGIAHKIEAGNEF [DAPK3] | 3.2 ± 0.087 | 3.1 ± 0.35 |  |  |
| NYEKEEEFLTNELSRKLMQLQHEK [CCDC6] | 4.43 ± 0.15 | 4.55 ± 0.38 |  |  |
| PAARRCHSCVQIKNDVFICGGYNG [KLHDC10] | 2.29 ± 0.42 | 2.43 ± 0.2 |  |  |
| PAATFGADDLVLTLSNPQMSLEGT [ELF3] | 4.24 ± 0.3 | 4.32 ± 0.23 |  |  |
| PAFKSMEVANFYYEADCLAAAYGG [CEBPB] | 2.83 ± 0.25 | 2.96 ± 0.13 |  |  |
| PAMQRYVKRLHEVGRTEPELLVAH [HMOX1] | 3.1 ± 0.29 | 3.37 ± 0.29 |  |  |
| PAMSPYWRTWMTITQSWQVSVRVQ [C22orf15] | 2.51 ± 0.41 | 2.74 ± 0.3 |  |  |
| PAPQVGTQIRTITEEIRDGKVISS [KRT36] | 5.08 ± 0.2 | 5.17 ± 0.23 |  |  |
| PASEKKPVPPSEGKSRLSPAGEMK [BCL2L13] | 5.28 ± 0.19 | 5.27 ± 0.084 |  |  |
| PAVPFAPHFLQGGPFPLPYTAPGG [TBX6] | 2.95 ± 0.097 | 3.03 ± 0.14 |  |  |
| PCIRNVTSPTRQHHVEREKDHSSS [BTBD10] | 5.23 ± 0.14 | 5.02 ± 0.42 |  |  |
| PDAWCDLSKFDLPEEPSAEDSINN [MYBL2] | 5.52 ± 0.12 | 5.42 ± 0.31 |  |  |

| Sequence | protein stability index [1] | protein stability index [2] | protein stability index (treatment: DMSO, c terminus: native) | protein stability index (treatment: MLN4924 1 uM, 8 h, c terminus: native) |
| --- | --- | --- | --- | --- |
| PECRQVLKTSRKDVKDKETTENEN [CHGB] | 5.54 ± 0.3 | 5.45 ± 0.37 |  |  |
| PEEMATYLRYVRRLDFFEKPDYEY [CSNK1G1] | 2.34 ± 0.26 | 2.26 ± 0.55 |  |  |
| PEGVNKLKISPVTLKEAYVQKLVK [TENT5C] | 2.94 ± 0.35 | 2.93 ± 0.41 |  |  |
| PEIDMFLNVATFLDPRYKRLPFLS [ZBED1] | 2.42 ± 0.43 | 2.25 ± 0.48 |  |  |
| PENVEDSGLDSPSHAAPGPSPDSW [FCHO1] | 5.37 ± 0.13 | 5.46 ± 0.2 |  |  |
| PGAFIAGVPVQPVLIRYPNSLDTT [LPCAT4] | 2.72 ± 0.19 | 2.75 ± 0.36 |  |  |
| PGDCFLLLVLLLYAPVGFCLLVLR [AUP1] | 3.1 ± 0.44 | 3.13 ± 0.35 |  |  |
| PGDMKTKMELLILETQAQVCQALA [CPOX] | 2.31 ± 0.26 | 2.37 ± 0.34 |  |  |
| PGEGLLISWAFTDRPDLSLTVLPK [C2CD2L] | 2.64 ± 0.48 | 2.37 ± 0.44 |  |  |
| PGGPRNLKPTASKLGAPLSGLQGL [PDLIM4] | 3.54 ± 0.21 | 3.54 ± 0.053 |  |  |
| PGLPPVPGAPGMPPGIPPLMPGVP [ZNF207] | 4.41 ± 0.2 | 4.5 ± 0.24 |  |  |
| PHDFIEHFLSKMPEAEENKQIIRK [CCND1] | 3.96 ± 0.21 | 4.27 ± 0.22 |  |  |
| PIGELYGLSESSGPHTISNQNNYR [ACSBG2] | 3.91 ± 0.31 | 4.07 ± 0.57 |  |  |
| PIIVVPDPPSSSEECPAHLLEDPL [RHOBTB2] | 5.2 ± 0.1 | 4.81 ± 0.3 |  |  |
| PILQGQIDALLEFDVHPNELTNGV [SNAP91] | 3.42 ± 0.29 | 3.4 ± 0.45 |  |  |
| PISLQATPATPATLSASSSAGGSR [TFE3] | 4.51 ± 0.18 | 4.87 ± 0.11 |  |  |
| PKMRSKEQILELLVLEQFLTILPT [ZNF449] | 3.07 ± 0.96 | 3.36 ± 0.73 |  |  |
| PKRRMRYFDPLRNEYFFDRNRPSF [KCNA3] | 2.37 ± 0.26 | 2.6 ± 0.65 |  |  |
| PLEYQFKSQIMSLSHSPQEDWVLL [TLE6] | 2.26 ± 0.29 | 2.37 ± 0.4 |  |  |
| PLFNPMIYSLRNKEFKSALCKIVR [OR10K2] | 2.32 ± 0.071 | 1.9 ± 0.5 |  |  |
| PLGLEADMWSIGVITYILLSGASP [DAPK3] | 2.52 ± 1.4 | 2.27 ± 0.23 |  |  |
| PLLQSIHQLDFVQVKASSPVPATP [TRIM9] | 3.02 ± 0.18 | 3.2 ± 0.21 |  |  |
| PLPAGVPPLEDFEVLDGVEDAEGE [FKBP8] | 5.64 ± 0.26 | 5.44 ± 0.46 |  |  |

| Sequence | protein stability index [1] | protein stability index [2] | protein stability index (treatment: DMSO, c terminus: native) | protein stability index (treatment: MLN4924 1 uM, 8 h, c terminus: native) |
| --- | --- | --- | --- | --- |
| PNFMKVIPAVSISYVVYENLKITL [SLC25A25] | 3.2 ± 0.4 | 3.46 ± 0.52 |  |  |
| PNINKISMQAVLDYLYTKQLSPNL [RHOBTB1] | 2.25 ± 0.68 | 2.16 ± 0.31 |  |  |
| PNVYPAAPQGGMAALNMSLGMVTP [ADD1] | 3.26 ± 0.28 | 3.25 ± 0.21 |  |  |
| PPASPPADGSPPLLPPGEPPLLGT [ANKRD40] | 5.17 ± 0.26 | 5.42 ± 0.14 |  |  |
| PPKAPPPVIKIPECPSMGTNEAAC [RHOBTB1] | 4.71 ± 0.23 | 4.86 ± 0.2 |  |  |
| PPMGKAFQELAGKELCAMSEEQFR [SPDEF] | 4.3 ± 0.25 | 4.4 ± 0.34 |  |  |
| PQQGFFSSFFTCNQKCQLRLLKTL [ATP23] | 2.36 ± 0.4 | 2.13 ± 0.3 |  |  |
| PQVRDWSHYFKIIEDLRAQIFANT [KRT18] | 2.52 ± 0.36 | 2.64 ± 0.46 |  |  |
| PQVSAHHRSQESLTSQESEDTYL [TBC1D10A] |  |  | 5.4 ± 0.18 | 5.51 ± 0.16 |
| PRAVLKPRRVCVGGKRRRDDISVD [PPP2R2C] | 4.02 ± 0.18 | 4.25 ± 0.39 |  |  |
| PRHQGHRVQPVKDTAHDFRAKCRN [TRIM35] | 4.57 ± 0.15 | 4.65 ± 0.24 |  |  |
| PRICQRNLMSLLMAVRPSLPESGL [FANCE] | 2.4 ± 0.6 | 2.21 ± 0.27 |  |  |
| PRRSLSISKNKKKASNSIISCFNN [FAN1] | 2.79 ± 0.13 | 3.75 ± 0.29 |  |  |
| PSAPEALHSLPGVSLSLENRELWK [TBX6] | 3.94 ± 0.19 | 3.96 ± 0.33 |  |  |
| PSGFKHVSHVGWDPQNGFDVNNLD [WAS] | 3.83 ± 0.24 | 3.79 ± 0.58 |  |  |
| PSIMPQKHWVYVKRGGNCPAPAPL [ZBTB22] | 2.85 ± 0.19 | 2.81 ± 0.32 |  |  |
| PSPQLDTQQEIKLCQKSNDISIHH [WDR41] | 4.41 ± 0.51 | 4.49 ± 0.05 |  |  |
| PSTLLPTPEEQGELEPLKGNFDWE [FOXJ1] | 5.17 ± 0.068 | 5.16 ± 0.29 |  |  |
| PTPIFAGGANDRWVRSVSFSHDGL [WSB1] | 2.61 ± 0.19 | 2.99 ± 0.64 |  |  |
| PVDAEALELHDYHDIIKHPMDLST [BRD3] | 4.63 ± 0.34 | 4.67 ± 0.32 |  |  |
| PVIKIPECPSMGTNEAACLLDNPL [RHOBTB1] | 4.33 ± 0.16 | 4.41 ± 0.24 |  |  |
| PVKPVTFSTGIKMGQHISLAPIHK [MNAT1] | 2.96 ± 0.34 | 2.96 ± 0.32 |  |  |
| PVLAVVFIICIVIAILLYKSKPDR [PTPRD] | 2.94 ± 1.7 | 2.87 ± 0.63 |  |  |

| Sequence | protein stability index [1] | protein stability index [2] | protein stability index (treatment: DMSO, c terminus: native) | protein stability index (treatment: MLN4924 1 uM, 8 h, c terminus: native) |
| --- | --- | --- | --- | --- |
| PVPTGFFNMWGFGRVSKQASQPVK [WDR41] | 2.84 ± 0.25 | 2.8 ± 0.21 |  |  |
| PVYSVPQLLSAMGSLCSLWFGASV [SCNN1D] | 3.06 ± 0.056 | 3.37 ± 0.59 |  |  |
| PYLRGTIKMMQAVRQAFQDQDDRR [GFOD1] | 3.32 ± 0.17 | 3.56 ± 0.34 |  |  |
| QADLELIESAHRSRIKVLETSYQQ [FBF1] | 5.22 ± 0.16 | 5.11 ± 0.12 |  |  |
| QAEKRAAEKVSEARKRKNRRLKQA [ATP6V1G1] | 5.47 ± 0.51 | 5.33 ± 0.41 |  |  |
| QAELQELEERLQLQFEAEMARLQE [MTUS2] | 4.78 ± 0.38 | 4.72 ± 0.29 |  |  |
| QAWVQKHHPENGEETVTMLEDVER [ZNF396] | 5.1 ± 0.32 | 5.39 ± 0.17 |  |  |
| QCDKRFRWSSDLNKHLTTHQGIKP [ZNF75A] | 3.02 ± 0.12 | 2.97 ± 0.24 |  |  |
| QCPMRVQKEVAGFVLNRLQYAIIS [CRYL1] | 3 ± 0.78 | 2.38 ± 1 |  |  |
| QDAVDQVKVIMDALDERAKVLHED [TRIM29] | 4.93 ± 0.1 | 4.93 ± 0.34 |  |  |
| QDTLELESPSLTSTPVCSQKVVVT [MYBL2] | 4.59 ± 0.18 | 4.63 ± 0.11 |  |  |
| QEILELIDREVDLMMRGVKHHNLE [IQUB] | 2.67 ± 0.46 | 2.64 ± 0.5 |  |  |
| QELQARLQTVTREKEELLQLSIER [CCDC89] | 4.38 ± 0.35 | 4.32 ± 0.1 |  |  |
| QELVDYVNARQKQGIYEEYEDIRR [PTPN9] | 3.88 ± 0.24 | 3.86 ± 0.2 |  |  |
| QEQIEAVLLNSLQQYRQDQRDGSK [CCND2] | 4.51 ± 0.086 | 4.46 ± 0.13 |  |  |
| QESSFRSRKIAVEDENDLEELNNG [MIA2] | 5.32 ± 0.92 | 5.48 ± 0.15 |  |  |
| QFILERGEYPRWDAWSGSNAYHIE [CRYBA1] | 2.31 ± 0.17 | 2.19 ± 0.18 |  |  |
| QGAKERAHQQKKHSGFEDELSEVL [CHGA] | 5.23 ± 0.25 | 5.27 ± 0.23 |  |  |
| QGEPLGYRQDDPSYRSFHSGGYGQ [CTNNB1] | 3.76 ± 0.48 | 3.96 ± 0.24 |  |  |
| QGLAEKSPLQTIGEEQTQNPYTEL [WDR41] | 5.3 ± 0.14 | 5.29 ± 0.13 |  |  |

— the supplement of paper PMC10567573
